These results are taken from article doi:10.1101/2020.11.08.373522, “The DEAD-box RNA helicase Ded1 from yeast is associated with the signal recognition particle (SRP), and its enzymatic activity is regulated by SRP21” (bioRxiv, 2020).

Common to all, as to details: both partners purified
The target of assay [1] is T1, Recombinant Ded1-His (S. cerevisiae, UniProt P06634 1-604).
T1 construct: Ded1, DEAD-box RNA helicase of budding yeast, wild type, recombinant; also called purified Ded1
In words: co-IP; purified Ded1 (4 µg) with one purified SRP protein (4-6 µg), no RNA, 300 µl 1X PBS with 2 mM MgCl2, 45 min at 30°C; recovered with Ded1-specific IgG cross-linked to protein A-Sepharose beads, 1 h at 18°C; 12% SDS-PAGE, Coomassie blue.

Assay [2] concerns the target T2, Recombinant His-tagged SRP21 (S. cerevisiae, UniProt P32342 1-167).
T2 construct: SRP21 of the yeast signal recognition particle; subcloned into the NdeI and XhoI sites of pET22b; source: E. coli Rosetta (DE3), pET22b, purified (Ni-NTA)
T2 sequence (looked up): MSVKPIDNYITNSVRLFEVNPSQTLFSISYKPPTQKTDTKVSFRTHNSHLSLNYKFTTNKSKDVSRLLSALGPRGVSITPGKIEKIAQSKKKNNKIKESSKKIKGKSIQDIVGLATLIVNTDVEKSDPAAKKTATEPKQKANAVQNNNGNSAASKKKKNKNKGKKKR
In words: co-IP; as a3 but purified Ded1 with combinations of purified SRP proteins (SRP21 with SRP14; SRP54 with Sec65; SRP14, SRP21, SRP54 and Sec65 together); recovered with Ded1-specific IgG on protein A-Sepharose beads; SDS-PAGE, Coomassie blue.

Assay [3] has as its target T1, Recombinant Ded1-His. Described as above.

T1 sequence (P06634 whole entry): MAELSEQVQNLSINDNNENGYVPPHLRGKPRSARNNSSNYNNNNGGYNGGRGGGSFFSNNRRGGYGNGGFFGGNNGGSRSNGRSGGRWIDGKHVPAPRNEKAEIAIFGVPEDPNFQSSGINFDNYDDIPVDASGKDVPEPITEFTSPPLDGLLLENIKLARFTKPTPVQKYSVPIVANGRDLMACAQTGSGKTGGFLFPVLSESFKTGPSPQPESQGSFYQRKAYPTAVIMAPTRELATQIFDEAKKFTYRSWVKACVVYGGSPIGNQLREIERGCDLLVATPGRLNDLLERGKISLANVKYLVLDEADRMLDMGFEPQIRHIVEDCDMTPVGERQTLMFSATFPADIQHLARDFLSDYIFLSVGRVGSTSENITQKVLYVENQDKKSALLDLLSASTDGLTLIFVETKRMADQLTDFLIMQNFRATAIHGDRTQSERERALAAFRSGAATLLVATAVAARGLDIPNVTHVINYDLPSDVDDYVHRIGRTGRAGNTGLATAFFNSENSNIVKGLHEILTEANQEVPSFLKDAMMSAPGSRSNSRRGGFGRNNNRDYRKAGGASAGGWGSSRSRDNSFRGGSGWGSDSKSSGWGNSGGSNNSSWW

B1: Recombinant His-tagged Sec65 (natural protein, S. cerevisiae, UniProt P29478 1-273, looked up)
chain: MPRLEEIDDFNDIDDLDMELAELDPSLRTPIAPKITPKVVRSQDQENPAFLPGTNNNSNSNNNSSNEKEQLSFINPKTGKVERSEAISKKDLEEVKRFQVLYPCYFDINRSHKEGRRVPKELAVENPLAKTMADAVRELGILCIFEGEKCHPQDFGNPGRIRVLFKENGQLIGAATKFKGGKRQLMKAVGEYMKRHPTTIESLREIPYGPDFDNIEFKKIPRVKGFKMNEIVPLHSPFLMGHPMTKSVYETPKITAAEKSFKPPKNKYKVVRR
notes: Sec65 of the yeast signal recognition particle; source: E. coli Rosetta (DE3), pET19b, purified (Ni-NTA)
Consider B1, for which the binding result with Recombinant Ded1-His [1] is “binds”.

B2: Recombinant His-tagged SRP14 (natural protein, S. cerevisiae, UniProt P38985 1-146, looked up)
chain: MANTGCLSPGAFLSKVPEFFQTANEKHITVRLTAKRLIEHDPVEGNLEFDSTNHPDYDVSKKASEISVSSRSDREYPLLIRMSYGSHDKKTKCSTVVKASELDQFWQEYSSVFKGGMQNLIKKKKKKSKNGTISKTGKKNKVAKKN
notes: SRP14 of the yeast signal recognition particle; subcloned into the NdeI and XhoI sites of pET22b; source: E. coli Rosetta (DE3), pET22b, purified (Ni-NTA)
Regarding B2, the binding result (in assay [2]; with Recombinant Ded1-His [3]) was “binds” throughout.
